Earlier results on 2 substances are cited in article PMC2912330.

pKd: −log10 of the molar value. Read-outs that look alike come from different tables or passages of the source.

In data set [1] the target is VEGFR2 (Homo sapiens) (UniProt P35968).
For data set [2] the target is unchanged. This is another data set of the same source.

UniProt P35968, sequence (P35968 20-1356): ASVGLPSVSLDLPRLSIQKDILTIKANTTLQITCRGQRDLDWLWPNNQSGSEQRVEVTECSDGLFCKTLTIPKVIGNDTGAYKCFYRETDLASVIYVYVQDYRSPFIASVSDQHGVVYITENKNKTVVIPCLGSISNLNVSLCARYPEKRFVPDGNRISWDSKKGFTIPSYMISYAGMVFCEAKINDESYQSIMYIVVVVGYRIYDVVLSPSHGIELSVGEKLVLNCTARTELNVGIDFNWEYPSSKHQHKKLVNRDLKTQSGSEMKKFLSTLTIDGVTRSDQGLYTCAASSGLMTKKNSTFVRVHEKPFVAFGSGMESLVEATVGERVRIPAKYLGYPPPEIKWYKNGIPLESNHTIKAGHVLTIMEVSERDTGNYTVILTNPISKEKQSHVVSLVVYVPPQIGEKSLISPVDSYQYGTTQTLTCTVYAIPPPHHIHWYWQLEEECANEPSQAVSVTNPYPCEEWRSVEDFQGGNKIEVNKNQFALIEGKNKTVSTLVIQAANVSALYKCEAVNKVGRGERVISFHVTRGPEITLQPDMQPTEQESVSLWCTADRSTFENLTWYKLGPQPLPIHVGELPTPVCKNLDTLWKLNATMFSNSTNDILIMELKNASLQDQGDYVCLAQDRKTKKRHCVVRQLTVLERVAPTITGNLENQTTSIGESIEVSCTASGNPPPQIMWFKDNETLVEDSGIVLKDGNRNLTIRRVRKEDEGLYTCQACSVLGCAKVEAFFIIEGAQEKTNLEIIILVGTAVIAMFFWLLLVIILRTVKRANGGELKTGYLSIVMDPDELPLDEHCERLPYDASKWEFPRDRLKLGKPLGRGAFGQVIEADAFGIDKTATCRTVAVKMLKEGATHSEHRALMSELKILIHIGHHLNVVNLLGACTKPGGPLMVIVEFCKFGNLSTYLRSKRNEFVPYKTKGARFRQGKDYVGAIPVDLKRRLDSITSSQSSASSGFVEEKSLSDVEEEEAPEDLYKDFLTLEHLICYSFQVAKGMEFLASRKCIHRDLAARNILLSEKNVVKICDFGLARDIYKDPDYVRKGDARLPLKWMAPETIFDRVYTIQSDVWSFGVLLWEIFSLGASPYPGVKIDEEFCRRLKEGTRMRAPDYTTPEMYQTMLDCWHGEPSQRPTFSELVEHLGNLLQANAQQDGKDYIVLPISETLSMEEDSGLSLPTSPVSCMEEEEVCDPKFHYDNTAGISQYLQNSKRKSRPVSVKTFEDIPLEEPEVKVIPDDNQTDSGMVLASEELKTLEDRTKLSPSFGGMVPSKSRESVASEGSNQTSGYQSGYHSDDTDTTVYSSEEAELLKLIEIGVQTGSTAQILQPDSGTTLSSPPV

In the case of VEGF114 VEGF114 (from UniProt P15692), the pKd (commonly the Kd on a negative log10 scale, so that one unit is a factor of ten) in the data set with VEGFR2 (Homo sapiens) [1] is 10.00. With VEGF165 VEGF165 (from UniProt P15692), the pKd with VEGFR2 (Homo sapiens) [2] is 10.00.
